Data on two molecules can be found in publication PMC7865483 (International Journal of Molecular Sciences, 2021).

The target in this experiment is T1, Pank1 (pantothenate kinase 1), endogenous in A549 cells (human (endogenous in A549), UniProt Q8TE04 1-598).
T1 construct: pantothenate kinase 1, endogenous in the human lung cancer cell line A549; source: endogenous, A549 cells (fixed cells for PLA)
Kind of experiment: proximity ligation; in situ PLA (Duolink) on fixed A549 cells, endogenous proteins; cells serum-starved for 24 h, or serum-starved and then treated with 500 μM H2O2. The following applies: partners not purified.

T1 sequence (Q8TE04 whole entry): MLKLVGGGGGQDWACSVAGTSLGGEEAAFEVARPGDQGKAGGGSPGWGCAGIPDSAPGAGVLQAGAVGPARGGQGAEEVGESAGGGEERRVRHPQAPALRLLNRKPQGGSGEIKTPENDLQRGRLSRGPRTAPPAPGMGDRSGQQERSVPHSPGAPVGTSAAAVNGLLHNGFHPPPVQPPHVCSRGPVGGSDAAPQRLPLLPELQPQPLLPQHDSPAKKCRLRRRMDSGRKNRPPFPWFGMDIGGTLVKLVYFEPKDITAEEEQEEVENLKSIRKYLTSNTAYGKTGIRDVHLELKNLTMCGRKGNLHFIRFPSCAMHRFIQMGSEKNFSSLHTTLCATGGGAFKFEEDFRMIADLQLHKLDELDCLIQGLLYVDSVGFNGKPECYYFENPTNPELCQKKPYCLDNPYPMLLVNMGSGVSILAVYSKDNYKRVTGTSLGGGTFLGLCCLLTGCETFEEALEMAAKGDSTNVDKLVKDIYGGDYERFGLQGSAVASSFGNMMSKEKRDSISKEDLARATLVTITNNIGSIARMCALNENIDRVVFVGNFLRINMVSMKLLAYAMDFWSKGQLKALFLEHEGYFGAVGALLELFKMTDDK

B1: 4′-phosphopantothenoylcysteine synthetase (PPCS) (enzyme)
chain: not shown
As for B1, the “fold increase of the PLA signal after stress treatments, against control conditions” value was roughly 10 fold.

B2: CoA synthase (CoAsy) (enzyme, human (endogenous in HEK293 and A549), UniProt Q13057 1-564, looked up)
chain: MAVFRSGLLVLTTPLASLAPRLASILTSAARLVNHTLYVHLQPGMSLEGPAQPQSSPVQATFEVLDFITHLYAGADVHRHLDVRILLTNIRTKSTFLPPLPTSVQNLAHPPEVVLTDFQTLDGSQYNPVKQQLVRYATSCYSCCPRLASVLLYSDYGIGEVPVEPLDVPLPSTIRPASPVAGSPKQPVRGYYRGAVGGTFDRLHNAHKVLLSVACILAQEQLVVGVADKDLLKSKLLPELLQPYTERVEHLSEFLVDIKPSLTFDVIPLLDPYGPAGSDPSLEFLVVSEETYRGGMAINRFRLENDLEELALYQIQLLKDLRHTENEEDKVSSSSFRQRMLGNLLRPPYERPELPTCLYVIGLTGISGSGKSSIAQRLKGLGAFVIDSDHLGHRAYAPGGPAYQPVVEAFGTDILHKDGIINRKVLGSRVFGNKKQLKILTDIMWPIIAKLAREEMDRAVAEGKRVCVIDAAVLLEAGWQNLVHEVWTAVIPETEAVRRIVERDGLSEAAAQSRLQSQMSGQQLVEQSHVVLSTLWEPHITQRQVEKAWALLQKRIPKTHQALD
In the case of B2, the “fold increase of the PLA signal after 24 h serum starvation, against control cells” value was roughly 10 fold and the “fold increase of the PLA signal after stress treatments, against control conditions” value was roughly 10 fold.
